Experiment: soluble on expression in E. coli; label from the status in PepcDB or PDB records

Sequence | soluble on expression in E. coli
MNTNERIVPLLPLRGVLVYPTMVLHLDVGRDKSIQALEQAAMDENIIFLAMQKEMNIDDPKEDDIYSVGTVAKVKQMLKLPNGTLRVLVEGLHRAEVVEFIEEENVVQVSIKTVTEEVEADLEEKALMRTLLEHFEQYIKVSKKVSNETFATVADVEEPGRLVDLIASHLPIKTKQKQEILEIISVKERLHTLISIIQDEQELLSLEKKIGQKVKRSMERTQKEYFLREQMKAIQTELGDKEGKGGEVEELREKIEQSGMPEETMKAALKELDRYEKLPASSAESGVIRNYMDWLLALPWTDATEDMIDLAHSEEILNKDHYGLEKVKERVLEYLAVQKLTNSLKGPILCLVGPPGVGKTSLARSIATSLNRNFVRVSLGGVRDESEIRGHRRTYVGAMPGRIIQGMKKAKSVNPVFLLDEIDKMSNDFRGDPSAALLEVLDPEQNHNFSDHYIEEPYDLSKVMFVATANTLSSIPGPLLDRMEIISIAGYTELEKVHIAREHLLPKQLQEHGLRKGNLQVRDEALLEIIRYYTREAGVRTLERQIAKVCRKVAKIIVTAERKRIVVTEKNVVDLLGKHIFRYGQAEKTDQVGMATGLAYTAAGGDTLAIEVSVAPGKGKLILTGKLGDVMKESAQAAFSYIRSRAEELQIDPNFHEKNDIHIHVPEGAVPKDGPSAGITMATALISALTGIPVSKEVGMTGEITLRGRVLPIGGLKEKTLSAHRAGLTKIILPAENEKDLDDIPESVKENLTFVLASHLDEVLEHALVGVKQ | not soluble
MPLNERQLDAFADEHAGQIPFDASPRHLAGPGDARHVTHGLAAAGWATISDPLSAEIVMASPDHRYRLQYDPQSATSAWWRLRATSADNEHGWYAEFGELVPAEVLSSLTDALIAPASPQSDPWQPVTSAGWRPDEAGAAHSPDAMCHIERRPTSEFHERPSWHIEVRDAHDTQYPGPRIWHAYLDEHAPDHLVGAFLSALTDQSPLQRGMFDRTAHYSAVKEPSPLRPQQVVDAHTSRVKVLRAQARAMRRQQTAPAKPPAPTTAVQPAARRLEHHHHHH | not soluble
MGSDKIHHHHHHMKAQEVPSTTFTGGETVLTFKGGVHPPELKEWSKDKPIERAPLPQKVFVFLSNHAGNPAKPVVSPGDEVKTGQVIGEPEGFISAYLHSPVTGRVLEIKKILHPILGKPIEAIVIERTSDDEWVHIETGDFERMSKEEILEIIKKAGIVGLGGAMFPTHVKLSPPPEKKVDTLIVNGAECEPVLTIDHRLMLERAEDILQGILIMMKVLGVQKAVVGVESNKMDAYHNLKKVFKGYPVDVALLRTKYPQGAEKQLIYAITGRMVPRGGLPMDVGVVVQNVGTCVAVKEAVVDGKPLVERGMTVSGDAVKNQKNLIVRIGTPVKDVIDYCGGIDENTERVILGGPMMGISITNLDIPVMKGTSGITAFLPKKSRPQKPCIRCSECVQVCPMNLQPYLLYLLSTKRKYDEAVENGLMDCIECGSCTYTCPSKIEHVRYIKLAKTVYRATRRGRR | not soluble
METESWKLLESSIIYYEGNPIGTVAAQDPELAALNYDQCFLRDFVPSAFVFLMDGQTDIVRNFLIETLTLQSHEKEMDCFQPGAGLMPASFKVESDGSKEYLVADFGEKAIARVPPVDSCMWWILLLRAYEKATGDLTLAREPKFQAGIKLILDLCLAHRFSMYPTMLVPDGAFMIDRRMGVYEHPLEIQVLFYAALRAARELLLPDGDGEQYLNKVHGRLGALQYHIRNYYWVDLKRLREIYRYKGNEFGKEIANKFNIFSQSIPDWVIEWLPEKGGYLAGNLGPGRMDFRFFALGNLMAILAGLASEEESQRIMNLFAHRWEDLIGYMPVKICYPALQGLEWQIVTGCDPKNIPWSYHNGGNWPVLLWLFTAAALKTGKVELAHEAIAIAEGRLSNDKFPEYYDGNNGRLIGKEARIYQTWSIAGLLVAKQFLANPDHVEFISFPDTFIGPGCSLLEHHHHHH | soluble
MGSDKIHHHHHHMSDVVLNKGIVIEQLRYGHGNDVLVVDAWQLGTAEHWAIFATDSYSGSLLGRILSGDITPDQGIITGLPQRIGWVSLGQQQALLARELAKDELDYGSSVELLVLECCQGAQQLGPLLQQVGLEHLRLRGFRQLSTGETRRVMLARALAMQPQLLILDDPYAGLDCEHQESLSQLLDEVAKNCQLLLITSRQEELPECISHVALFNTEMLQSGQSIHKLSLPMSIKEWHSHPIMAQLHALSAQRSDELLALLVRQRHKVEDFDPLVEIKNGKVEYVSGLIFSGVNWRIEAGQHWQVRGPNGCGKSTLLGLILGDHPQCYSNDITLFGRPRGSGESIWEIKQRIGIVSSALHLQYRVSCSALDVLLSGFFDSIGLYHKPTKLQHDLAKEWLAILHMSELAHISFKQLEYGQQRLLLIGRALIKKPLLLILDEPYQGLDFINRTLVMRTLEMIAHHHLSQLLYVSHHREDALPSIKHFIDFVRQGDGYSVQVSHL | not soluble
SDSFWEPGNYKRTTKRIEDGYKLCNDLQQLIQERADIEKGYAKSLRTWSKKWGELIEKGPEYGTTEAAWKGVLTESERISDVHMKIKDNLCNDVNSQIKTWQKENYHHTLMQIKERKDLEDLFKKAQKPWAKLLAKVEKAKADYHSACKTERSATNQERNANADSSLSPDQVKKMHDRVQKTKDQVQKCREKYEQAIAEITKYNSVYIEDMTSVFEKCQTFEKTRLQFFKEILFNVHSCLDLTKVQSLPQIYEEFSHTINNADQQKDLKWWSNNHGINMAMNWPSFVEYT | soluble
MSLKLLHERMMHSLARYPRQTAVVDEQDALSYEALELRIREFVAMLCALGVGQGQRILLWAHKSVDLVAVMQAALRLGVVYVPVDPLSPVSRLEKIAGDSQAVLVLCTAARLEELAGSALAQVRSVVLDDPASAGYWRNIDTGSSVVPTLAIQPDDLAYILYTSGSTGVPKGVALSHGNALAFVDWACERYCFQPGERFANHAPLHFDLSVLDIYCALNVGATVCLVPESIAFSPRLLTDFIRQHEISIWYSVPSVLMMMMQDGDLLSDIQDTLRVLLFAGEPFPVKHLRDLRAAYADVRLANLFGPTETNVCTAFEVGAIDPERVLPVPIGTAASGNQVWAQKPDGSRCAVGEEGELVVQGPTVMLGYFAKPAQEGPYKTGDMVRQRPDGNYEYLGRRDDMLKVRGNRIERGEVEAALLAHPQVSEAAVLVVGEGMNAQLWGVLVAHTRDALSLIDLKRHCAQRLPRYMIIDKVLCLDALPRNANGKVDRFALARQVEGHHHHHH | soluble
MKDFITEAWLRANHTLSEGAEIHLPADSRLTPSARELLESRHLRIKFIDEQGRLFVDDEQQQPQPVHGLTSSDEHPQACCELCRQPVAKKPDTLTHLSAEKMVAKSDPRLGFRAVLDSTIALAVWLQIELAEPLGCQAIVGLSDEDLHRLSHQPLRYLGHDHLVPEASHGRDAALLNLLRTKVREAETVAAQVFITRSFEVLRPDILQALNRLSSTVYVMMILSVTKQPLTVKQIQQRLGETQ | not soluble
MTSESSGNTGGAMDEPTEKKPKEFSDLPDHVLQRIMEKVEPSDRLSVRKVNRNLRQLIDEMDPGFRSISVNISTRKGVLVSYDNGSFIHYQQVYDDCEMFGRKEKKRFFNENAVKMAINDVIRVMSHPMSNVKLFRTGIPTKPEMERSRSTGKQWKRAKILCANRGFMEVSMKHLCHFSRVVVNQARTSMQTAIEIRDILLKSTSIEYVDFCSRDGVTIDAVRVFIPETANVNQTTDYDNFTFSSSMCSLNFKKKR | not soluble
MPFPFGKSHKSPADIVKNLKESMAVLEKQDISDKKAEKATEEVSKNLVAMKEILYGTNEKEPQTEAVAQLAQELYNSGLLSTLVADLQLIDFEGKKDVAQIFNNILRRQIGTRTPTVEYICTQQNILFMLLKGYESPEIALNCGIMLRECIRHEPLAKIILWSEQFYDFFRYVEMSTFDIASDAFATFKDLLTRHKLLSAEFLEQHYDRFFSEYEKLLHSENYVTKRQSLKLLGELLLDRHNFTIMTKYISKPENLKLMMNLLRDKSRNIQFEAFHVFKVFVANPNKTQPILDILLKNQAKLIEFLSKFQNDRTEDEQFNDEKTYLVKQIRDLKRPAQQEA | soluble
MYQQSSFKENLIHWFDENQREMPWRQTTNPYYIWLSEVMLQQTQVKTVIDYYHRFVERFPTVEVLSQASEDEVLKYWEGLGYYSRARNFHTAIKEVHDKYEGLVPKDPDQFKALKGVGPYTQAAVMSIAYNVPLATVDGNVFRVWSRLNDDYRDIKLQSTRKSYEQELLPYVTTEAGTFNQAMMELGALICTPKNPLCLFCPVQENCEAFDKGTFEKLPVKSKNVSKKVIEQSVFLIRNNQGQYLLQKRSEKLLHGMWQFPMFESEHARRKMTEKIGHDIQPVETPIFELKHQFTHLTWKIKVYAVSGAINIETLPDDMIWFDLSDRDQYTFPVPMSKIYQFING | not soluble
MKQKIVLATGNKGKVKEMADVLSDFGFEVIAQTDLGIESPEETGLTFVENALLKARYASEKSGLPAIADDSGLVVSALNGAPGLYSARYAGEEGNDAKNREKLLAELAHIAQEQRQAKFVSCIVFLQHPTDPSPIIAEGECCGVIGFEEKGENGFGYDSLFFSPEQGCTFAELETAEKKKISHRAKALSVLKSKL | not soluble
MQKVLAIVGPTAIGKTDLAISLAQKLNGEIISGDSMQVYQEVEVGTAKATKEEQAKVKHYLVDNRSVFDEYSVKDFVDEAKKAISEVAKKGKLPILVGGTGFYVNALLNEMQLGERNDEERGTSQKWEDYLKENGAEKLWQILNEKDPTAAAKIPVPNSRRTMRALTVIDRTGKKFSEQQKKIKPRYDYLIIGLNSDRQEIYRRINLRVDKMMGKGMLEEAKFIYDNRDKEHQILQAIAYKEFFPYFDGEKSLEDCVTQLKTASRRYAKRQLTYFRNQLPIQWFDPLNDLECEQKIINKVREWENGLEHHHHHH | soluble
MGSDKIHHHHHHMKKIQIVDDSQSNIRKLENLLNTHFLVTVARTGEEAVRMAKENVPDLILLEVALPDMDGFETCRRLKAQVESAKIPVIFVSSLKEKEAVIKGFEVGGQDYIIKPFEARELVLRMKSLLKQESSRKRLEQHVKVLEEQNEKLKGKIQKVDRLSRVDFLTNLMNRRDMQEKIRAEINRSIRHGRSFTLAIVDIDFFKNINDTYGHDCGDHVLKHFVSTLKNSVRSSDYVSRWGGEEFLLLFPETKLEEGKRACEKIRQKINESPVIYKGMSISITATFGISEYRPSVRIEELIKAADDALYKGKKTGKNQVVVQSM | not soluble
MDMNFDLYMNGVVEQARNEIESAGYEQLTTAEDVDKVLKQDGTTLVMINSVCGCAGGIARPAASHALHYDVLPDRLVTVFAGQDKEATQRAREYFEGYAPSSPSFALVKDGKITEMIERHQIEGHDVMNVINQLQTLFNKYCEERLEHHHHHH | soluble
MESLLTLPLAGEARVRILQITDTHLFAEKHETLLGVNTWESYQAVLEAIRAQQYEYDLIVATGDLAQDQSAAAYQHFAEGIASFRAPCVWLPGNHDFQPAMYSALQEAGISPAKRVLIGEQWQILLLDSQVFGVPHGELSEFQLEWLERKLADAPERQTLLLLHHHPLPAGCSWLDQHSLRNAGELDSVLANFPRVKYLLCGHIHQELDLDWNGRRLLASPSTCVQFKPHCANFTLDTIAPGWRTLELRANGVLETEVHRLQDTRFRPDTASEGY | not soluble
MGSDKIHHHHHHMSIVQAKFEAKETSFHVEGYEKIEYDLVYVDGIFEIQNSALADVYQGFGRCLAIVDANVSRLYGNQIQAYFQYYGIELRLFPITITEPDKTIQTFERVIDVFADFKLVRKEPVLVVGGGLITDVVGFACSTYRRSSNYIRIPTTLIGLIDASVAIKVAVNHRKLKNRLGAYHASRKVFLDFSLLRTLPTDQVRNGMAELVKIAVVAHQEVFELLEKYGEELLRTHFGNIDATPEIKEIAHRLTYKAIHKMLELEVPNLHELDLDRVIAYGHTWSPTLELAPRLPMFHGHAVNVDMAFSATIAARRGYITIAERDRILGLMSRVGLSLDHPMLDIDILWRGTESITLTRDGLLRAAMPKPIGDCVFVNDLTREELAAALADHKELCTSYPRGGEGVDVYPVYQKELIGSVK | not soluble
MSSIPQNIKGNNQPDIQKSFVAVHNQPGLYVGQQARFGGKVINVINGKTDTLLEISVLPLDSYAKPDIEANYQGRLLARQSGFLDPVNYRNHFVTILGTIQGEQPGFINKVPYNFLEVNMQGIQVWHLREVVNTTYNLWDYGYGAFWPEPGWGAPYYTNAVSQVTPELVKLEHHHHHH | soluble

— the DeepSol protein solubility set
